# Assay results: publication doi:10.1101/2025.01.27.635082 (bioRxiv, 2025)
# B1: mouse phosphomannomutase 2 (Pmm2) (enzyme, UniProt Q9Z2M7 1-242, looked up)
# chain: MATLCLFDMDGTLTAPRQKITEEMDGFLQKLRQKTKIGVVGGSDFEKLQEQLGNDVVEKYDYVFPENGLVAYKDGKLLCKQNIQGHLGEDVIQDLINYCLSYIANIKLPKKRGTFIEFRNGMLNVSPIGRSCSQEERIEFYELDKKEHIRQKFVADLRKEFAGKGLTFSIGGQISIDVFPEGWDKRYCLRHLEHAGYKTIYFFGDKTMPGGNDHEIFTDPRTVGYTVTAPEDTRRICEGLFP
# B2: human phosphomannomutase 2 (hPMM2) (enzyme)
# chain: MAAPGPALCLFDVDGTLTAPRQKITKEMDDFLQKLRQKIKIGVVGGSDFEKVQEQLGNDVVEKYDYVFPENGLVAYKDGKLLCRQNIQSHLGEALIQDLINYCLSYIAKIKLPKKRGTFIEFRNGMLNVSPIGRSCSQEERIEFYELDKKENIRQKFVADLRKEFAGKGLTFSIGGQISFDVFPDGWDKRYCLRHVENDGYKTIYFFGDKTMPGGNDHEIFTDPRTMGYSVTAPEDTRRICELLFS
# Biological target: the molecule itself
# Test: SEC
protein,measurement,value
B1,stoichiometry N,2
B2,stoichiometry N,2
